We go through 69 sequences from the domain aggregation screens of Martell et al. (2025).

This data set can be described thus: soluble fraction after stress (log2 fold change); higher = more stays soluble; pooled small domains, quantitative proteomics. Conditions: stress: pH 4. A digest of the protocol:
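Following acid stress at pH 4, the amount of each small protein domain still soluble was measured in pooled custom libraries by high-throughput quantitative proteomics. Its fold change, on a log2 scale, is higher when more of the domain stayed soluble. This fold change is taken as a measure of aggregation propensity.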
With “HMAQQEMEIIPLRHRQVEQVMPTLRPLLEPGAALSGMNNQLILRASRKNREEIKQALAVIDT”, the “soluble fraction (log2)” value was 0.121.
The result for “HMAQSEDLMVMAQRILGGPEAQSFFQAEATRQGLAGFLPEPIPDFLQRLERKLSGSVGSATAHAMVAQTMG” reads -0.279.
The value for “HMAQSLAQKINNYILTNRSSIANVAKSIGYSRTTVSRYLAGKYDSDPTDLENKLAEFLAHETGE” was 0.017; that for “HMAQTEIIRVTKDIKKGDAITADKFEKVKVGAYNLPGNVVKNADELKGKFAAADLVRGDYILTSKLTDNP” was 0.0605; that for “HMAQVRSTVERRENGTYTVELNLNDDVDNVMRLQLMVATKEMAEDLAQRFQKNPEQVYSQLVTALYG” was -0.719.
For “HMAQVSDDAELEKWADTAIDEHPKPVEEYRAGNAASINFLMGQVMKMSRGKANPGAVMQILKQKLD”, the “soluble fraction (log2)” value amounted to 0.22.
The result for “HMAQVSDTGAIAKIVADAIAANPKQVQQYLDGNEKVLMYLVGQVMKLSKGKANPPMVIQLLKEQLG” reads -0.0882; that for “HMAQVSDTGELEGVVDGVLAANAKSVADFQAGKENAFQYLIGQVMKETKGKANPEVVATLLRTKLS”, 0.121; that for “HMARAGKLAQDMAVWTKETMLNTERNFISLRHFKRELLRRTLAPGESEQTVRAMEEAGYIQVKDGLVFPIK”, -0.511.
The value for “HMAREQISVSQMVRDVRDGQVKNIEVLGQELRLSYADGSQKVTRKEEGQQALEILFASDIDLAALDLEVQ” was -1.16; that for “HMARIDYHAMDSDDLSFSEGELLEIYDKPGSFWWKGRSLVSGDEGDIPS” was -1.15; that for “HMARKFQKDTGYLNKKERTWLLDFFPSLKKYLYTGAYIRSIIVVESNVTYTDKELPSNYTFTYKFA” was 0.176.
For the sequence “HMARKISVEALGKYFPNSPMLAAAVAVTGVMKKDEFIHEMRASYKHKFAKKPEVIDGNMKALTMTFEA”, the “soluble fraction (log2)” value is -0.122.
Regarding “HMARNHYETLGVGRTATGDEIRKAYRSEAQKHHPDRGGDAERMQSLNEARDTLLDDQARAAYDQELDL”, the “soluble fraction (log2)” value was -0.0435.
“HMARPLLSPREQDVLALIARGFSYSEVARLQAVTVHTIRTHIRNLYAKLSVHSKTEAVFEATRMGLLP”: the “soluble fraction (log2)” value is -0.569.
For “HMARRKRDIDSDINVKVFEHWLDNLDSASRESFSAFAEETFSPIQVYLYAKFLGYESSIIAVDHWVAVAYP”, the “soluble fraction (log2)” value was -0.574.
Turning to “HMARSVAEFVERGRSGGSLERPKLQRMLEYIQDRPVDFVIVHKIDRLARNRADDAAITKTIRGAGAYLVST”, the “soluble fraction (log2)” value was -0.103.
The value for “HMARTGSEELVGALATVREPLAPWGQVFVQGALWRARSADGGPVDAGQQVVVRAVEGLTLVVEPRD” was -0.166; that for “HMARYSMLEEQLLQLINKHGTMSTPKLVEATGAPRSTVTYQLRKLLESGTIERTQPARSPKQSYRIKS” was 0.0957; that for “HMASATGVVTAASLNVRSGAGTNYSVVNTLAKGTKVTVLNTADGWYEIEATVNNEKITGYVSATYIAMD” was -0.0486.
The value for “HMASLSRRELEVLELLALRLTVKEVAERLVISELTAKRHTSNIYQKLGVNRRRDALAAAQARGLLGAR” was -1.09; that for “HMASRSQTEIMHLLSSGLPKHELVTALQSLLGISKPTAYKYLSQDVSIAYDHMVKILEYPPFQRVLYQ” was -0.799.
The result for “HMASSVKAPLPGVILDIKVKVGDTIKNGDTVVILEAMKMENNIHSDKDGVVKSIEVNKGDSVLEGATLLTI” reads -0.822; that for “HMASVDDILDRFKQAAKVTTDADLAKVLGLSRQSIAAARLRAKIPASWFPKMSSLFNISTEWLYRG”, 0.011.
Turning to “HMASVRPVAPPDPKTHTRLTYRIRRGDTLERIGRRYRVSIAEIQAWNTLRDPGDILAGQRLVIWIPTS”, the “soluble fraction (log2)” value was determined as 0.117.
The value for “HMATAPQIRAIYALGSKLGINQNSREDNLHQLVYSITGKESIKGLTNYEAARVQSELANMERK” was 0.396; that for “HMATEPLQPRVEVLGSTLATTNGARIVGVYDMSGREVSATQLSKGVYIVKVTNGSVTATQKVFI” was 0.254.
The result for “HMATETMGMIIRRLRREHGLTQEELAASIGVTAQAVSKWEKDLGMPDISQIVPLAGAFNVRTDVLFGLE” reads -0.672; that for “HMATEWLSSKEAAQRLGVSAATLYAYVSRGLLRSEGSSGQRERRYRADDVAQLRRRREVGRKAESIAASTL”, 0.142.
The result for “HMATHWHITPNPNNGKFLISGLMQDDSFHLMDASGQWLRQLRTVNQELDLDLQPGVYFLKDNSGSVMKFVV” reads -1.15; that for “HMATIADILAEHKDKEGPLLPVLHDVQKMFGHVSEEAMREIAQALNLTRAEVYGVVSFYHDFRKEVE”, -1.19.
In the case of “HMATIIGSIGIVTQKVGLTGVPGRVYVNNESWAAISANGKEIENDTQVIVVKIDGATLIIEKKG”, the “soluble fraction (log2)” value was -0.262.
The value for “HMATKEQIKRIYGLGAGLGIVGKDKDDMLHELIFSITGKDSVKQLDDSEFKAVQAELINRMKLA” was -0.111.
The result for “HMATLAVPNLMRLSQGEAMALIRLSGLSIGNVSIDSSMGSPRVIRQEPQASGGMLVLTQGDQVHLWLEGP” reads -2.08; that for “HMATLQLPVPKITLYPGELIRSDHLTDQRFNARALYHSAVYKSREDIVGKVARRTLLPGQPIPVNALR”, 0.194.
As to “HMATPKRGFRKQLAPLVQSGTITREEAGELSRSSGDATALRTKIGELMKAGKLTRKEAGELYSDAFPENA”, the “soluble fraction (log2)” value is 0.0387.
The value for “HMATPYISMAGIGKSFGPVHALKSVNLTVYPGEIHALLGENGAGKSTLMKVLSGIHEPTKGTITINNIN” was no less than 0.43; that for “HMATRAEQMAKTHQAILDTARELFLRNGYDATSTRDIANAIGITQPALYHHFKDKEVIFLAVI” was 0.101.
The result for “HMATSLTEQEKLIFGLLKKQSPIELSSLKEQAGLSNKKWDKAIKGLSTQQLAKVTKTENGLFVHLLQ” reads 0.12; that for “HMATTAGIEKYLGSGLIKGIGPIYAKKIVRKFKEDTIRIIDEEPDRLLEVEGIGQKRLEIIKQAWQQQKE”, -0.826.
For the sequence “HMATVHVDGIQYDFSSPEQAKEFAYKWAKKHNLTWEVHGETIHIK”, the “soluble fraction (log2)” value was -0.0405.
The value for “HMATYNEVLKRLIEERKRLGLSQQEMARLVHITQSNYSKVEKGLHRLSYEELKYLSKANVDIFYILT” was 0.0845; that for “HMAVANEAIANINMKEVKQAIHNLPEIFKNPFLLYFDGYKYHEIAEMLDEPLGTIKSRIHFARKLLKSHI” was 0.22; that for “HMAVDVNKATAAELDSIKGIGPAISAKILEEKKKGGNFKDWNDLVTRVSGVGEANAAKFSSEGLTVGGAS” was 0.235.
The value for “HMAVELPLETTLDIVRKYARNQEVDRRAERVEAVSAEALQTLAPRGTKLASEIVEQAKTQVLEELA” was -0.0679; that for “HMAVKYTKDDFLYTEKPYEAIYDYKNDPFMHNLKIEQMAQQAAEVGVKTFKGLYKNYVKMREMQRGANV” was 0.0966.
On to “HMAVNSALVQRNWLIGYRIAEEELQGDNRAEYGASIIKKLAKELTAEYGKGYTKTNLYHFYSFYKT”, for which the “soluble fraction (log2)” value was -0.494.
The result for “HMAVNVNGIHLSSQQHEALVSIWRTGRMPEPHAGQKPWLWIQALRRRGLVSGNALRLTDKGRHIVQLLQ” reads 0.226; that for “HMAVPAALVQAWLELSRRMVAGTQDVGERFAEEARKMHYGETEDRGIRGQATLTEVRDLLDEGIEVLPLLL”, -0.725; that for “HMAVPLVRGTVTSSVGTVLLLSVGERDFFLSEGEEKDGVLLQSLSEKSAVVVVSGRAYTLSL”, -0.435.
As to “HMAVRLADMAAEKIRKMIIENKFDAGEPLSEMRLAEMFNVSRTPIREAIAILEQEGLLTTVHGKGAFIS”, the “soluble fraction (log2)” value was -0.637.
The result for “HMAVSDAAEEYGKAGTPLVILAGKEYGSGSSRDWAAKGPYLQGVRAVLAESYERIHRSNLVGMGIVPLTYK” reads 0.109; that for “HMAVSDPTAGGIKALMYPNPAQDRLSVALDIPAGLDKQAQMTVTDMMGRVVTQQQVTLNDGFQVFEL”, 0.209; that for “HMAVSSYSVKRYIRNMIQAEDPSAPFSDEALRLALLAHGIAVSRRVVTKYRMAMDIPSSSQRRKR”, -0.12.
The value for “HMAVSTFGRITASSLNVRSGPSTDHEKVGSLAAGRVVELLEESDGWYRIENGYISTEYVTIVDPSQ” was -1.33.
As to “HMAVTEVKTTAVVNMRSSDSEKADKLGKAQIGDTFRVLEQRANGWTKLTDGTQEFFIKSEYLEAIA”, the “soluble fraction (log2)” value came out at 0.0485.
The result for “HMAVVAPLAGSVARVLVADGDEIEAGQVLLVLEAMKMETEITAPKAGKVGAILVGKGDSVQGGQGLR” reads -0.249; that for “HMAYLTGFHAIEELIRAGKAKGPLLVANAGPRARTIMSLATDNKIRIDRLGEHELNRLAPGNRGIALYVE”, no less than 0.43.
The result for “HMDAAYVYVIGTRVNQRAGPSTSNAVMGVLSEGTRVETLRDEGQWTQIRSNFGTGWMSSSFLSSVAP” reads 0.124.
As for “HMDADRILHKTLKPRELEIYQLIKAYLEEHSQIANAKVQEISGLSEATTRRYLNIFVEFGLLKTS”, the “soluble fraction (log2)” value is -0.164.
The result for “HMDADTVGQIRVVKQILDDGRLIVVDASGNPVLVRRSSALSLTAISQGDRIIVDPSVRLAIELLPNE” reads 0.148; that for “HMDAEELNSKAKDEFTWLEDDESETNLEYRKMVSSEDMAIVAKVAPALAAKLKYQLAHAATNMV”, -0.529.
For “HMDAEVEHLFRIIAELKEKNVAIIYISHKMDEIFRISDDITVYRDGEYIATDRAENLNVDKVIQLMVGREV”, the “soluble fraction (log2)” value was -0.538.
The result for “HMDAEWRTLTLAPEQHQQRLDRALADSLPEFSRSYVQQLIDTGMVRVNGVLAAKSAQRVKALDQVQVELR” reads -0.186; that for “HMDAGIVVPDTYNKPLAEAVASLEGEGFRTEKKEGYSDTVAKGNVMSQNPEAGTNAERGSTVTIVISQGPQ”, 0.22.
The value for “HMDAINYEDFQLLIKQRGSFKVAFEDIMFSTKVAIEKKEDFYDFVTKLIDNGFNNMAYNYLEGFQD” was -2.34.
In the case of “HMDAISYTQFMEEAKQGRINKVEVQGRTLMVTPTDGKAYSLTSPGDLWMTTDLMKYGVNVYGAE”, the “soluble fraction (log2)” value was -0.527.
The value for “HMDALKAVYQWVTRTMMKNQTGVMQTLPNRDLIELNTQITAQRLMQAGVDPTTLKNANQVENAVNIIESR” was -0.193; that for “HMDAMGAVGIARAFISAGERGGDISDGLEHMHGKLLRLSSLMYTRSGKKMAARRHELLSSFVQALEEEIK” was -0.0591.
